Paper doi:10.1101/2020.06.18.158576 (bioRxiv, 2020)
Substitutions are numbered along the chain they refer to. In names and notes the source's numbering stands.

T1: KaiC (Synechococcus elongatus, UniProt Q79PF4 1-519)
T1 sequence: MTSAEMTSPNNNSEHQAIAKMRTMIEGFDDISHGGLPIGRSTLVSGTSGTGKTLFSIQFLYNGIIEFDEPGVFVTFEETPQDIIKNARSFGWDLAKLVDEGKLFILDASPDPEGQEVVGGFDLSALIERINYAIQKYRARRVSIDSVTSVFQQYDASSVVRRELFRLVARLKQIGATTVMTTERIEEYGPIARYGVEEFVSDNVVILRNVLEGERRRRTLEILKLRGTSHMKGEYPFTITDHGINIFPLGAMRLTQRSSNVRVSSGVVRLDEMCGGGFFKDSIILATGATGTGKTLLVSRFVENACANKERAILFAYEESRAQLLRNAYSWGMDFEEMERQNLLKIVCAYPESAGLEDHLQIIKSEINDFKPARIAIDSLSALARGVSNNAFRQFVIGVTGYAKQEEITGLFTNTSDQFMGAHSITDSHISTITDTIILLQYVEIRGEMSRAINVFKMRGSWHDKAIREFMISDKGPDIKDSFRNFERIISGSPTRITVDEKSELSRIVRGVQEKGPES

T2: SasA (unlabeled) (Synechococcus elongatus, UniProt Q06904 1-387)
T2 sequence: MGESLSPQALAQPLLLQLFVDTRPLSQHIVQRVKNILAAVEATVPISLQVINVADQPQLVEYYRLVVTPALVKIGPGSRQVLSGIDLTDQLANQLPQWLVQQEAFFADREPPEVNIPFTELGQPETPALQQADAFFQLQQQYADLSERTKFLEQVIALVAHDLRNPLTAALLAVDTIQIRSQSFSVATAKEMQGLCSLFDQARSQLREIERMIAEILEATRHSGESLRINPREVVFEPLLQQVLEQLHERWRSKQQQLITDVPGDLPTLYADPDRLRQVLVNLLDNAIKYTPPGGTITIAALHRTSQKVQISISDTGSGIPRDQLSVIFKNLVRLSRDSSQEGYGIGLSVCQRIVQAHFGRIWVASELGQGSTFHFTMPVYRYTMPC

B1: SasA, fluorescently labeled probe (enzyme)
chain: T2 sequence
modifications: fluorescently labeled using sortase-mediated ligation
B2: KaiA, fluorescently labeled probe (natural protein)
chain: MLSQIAICIWVESTAILQDCQRALSADRYQLQVCESGEMLLEYAQTHRDQIDCLILVAANPSFRAVVQQLCFEGVVVPAIVVGDRDSEDPDEPAKEQLYHSAELHLGIHQLEQLPYQVDAALAEFLRLAPVETMADHIMLMGANHDPELSSQQRDLAQRLQERLGYLGVYYKRDPDRFLRNLPAYESQKLHQAMQTSYREIVLSYFSPNSNLNQSIDNFVNMAFFADVPVTKVVEIHMELMDEFAKKLRVEGRSEDILLDYRLTLIDVIAHLCEMYRRSIPRET
modifications: fluorescently labeled using sortase-mediated ligation
B3: RpaA R121Q mutant (natural protein)
chain: MKPRILVIDDDSAILELVAVNLEMSGYDVRKAEDGIKGQALAVQLVPDLIMLDLMLPRVDGFTVCQRLRRDERTAEIPVLMLTALGQTQDKVEGFNAGADDYLTKPFEVEEMLARVRALLQRTDRIPHAARHSEILSYGPLTLIPERFEAIWFNRTVKLTHLEFELLHCLLQRHGQTVAPSEILKEVWGYDPDDDIETIRVHIRHLRTKLEPDPRHPRYIKTVYGAGYCLELPAETELHQHADQFPSAS
B4: RpaA, fluorescently labeled probe (natural protein)
chain: B3 chain with Q121R
modifications: fluorescently labeled using sortase-mediated ligation

Columns and labels:
[1] = target: T1, KaiC; test: fluorescence polarisation
[2] = target: T2, SasA (unlabeled); test: fluorescence polarisation

| Binder | binding result [1] | binding result [2] |
| --- | --- | --- |
| B1 | binds |  |
| B2 | binds |  |
| B3 |  | binds |
| B4 |  | binds |
